# Assay results reported in the RNAGym collection of RNA variant scans (doi:10.7554/elife.90254).
# B1: LINE1-full (parent)
# chain: UACGUAGGUGGUUUUCCCCUGAUAGUGCUAAGGGGGCCUGGAAGUUUGGACUGGGCAGAGCUCAACACAGCGUGGCAAAGUGGCUGUGGCUAGACUGCCUCUCUGGAUUCCUCGUCACUCAGCAGGGCAUCUCUGAGAGAAAUGCC
# Variants of: B1
# Experiment: self-cleavage, relative activity (ratio to wild type); higher = more cleavage; in vitro, sequencing; the parent is a self-cleaving ribozyme
row,Variant,self-cleavage
1,UACGUGGGUGGUUUUCCCCUGAUAGUGCUAAGGGGGCCUGGAAGUUUGGACUGGGCAGAGCUCAACACAGCGUGGCAAAGUGGCUGUGGCUAGACUGCCUCUCUGGAUUCCUCGUCACUCAGCAAGGCAUCUCUGAGAGAAAUGCC,0.77
2,UACGUGGGUGGUUUUCCCCUGAUAGCGCUAAGGGGGCCUGGAAGUUUGGACUGGGCAGAGCUCAACACAGCGUGGCAAAGUGGCUGUGGCUAGACUGCCUCUCUGGAUUCCUCGUCACUCAGCAGGGCAUCUCUGAGAGAAAUGCC,0.9
3,UACGUGGGUGGUUUUCCCCUGAUAUUGCUAAGGGGGCCUGGAAGUUUGGACUGGGCAGAGCUCAACACAGCGUGGCAAAGUGGCUGUGGCUAGACUGCCUCUCUGGAUUCCUCGUCACUCAGCAGGGCAUCUCUGAGAGAAAUGCC,0.69
4,UACGUGGGUGGUUUUCCCCUGAUAAUGCUAAGGGGGCCUGGAAGUUUGGACUGGGCAGAGCUCAACACAGCGUGGCAAAGUGGCUGUGGCUAGACUGCCUCUCUGGAUUCCUCGUCACUCAGCAGGGCAUCUCUGAGAGAAAUGCC,0.1
5,UACGUGGGUGGGUUUCCCCUGAUAGUGCUAAGGGGGCCUGGAAGUUUGGACUGGGCAGAGCUCAACACAGCGUGGCAAAGUGGCUGUGGCUAGACUGCCUCUCUGGAUUCCUCGUCACUCAGCAGGGCAUCUCUGAGAGAAAUGCC,0.85
6,UACGUGGGUGGCUUUCCCCUGAUAGUGCUAAGGGGGCCUGGAAGUUUGGACUGGGCAGAGCUCAACACAGCGUGGCAAAGUGGCUGUGGCUAGACUGCCUCUCUGGAUUCCUCGUCACUCAGCAGGGCAUCUCUGAGAGAAAUGCC,0.73
7,UACGUGGGUGGUUUUCCCCUGAUAGUGCUAAGGGGGCCUGGAAGUUUGGACUGGGCAGAGCUCAACACAGCGUGGCAAAGUGGCUGUGGCUAGACUGCCUCUCUGGAUUCCUCGUCACUCAACAGGGCAUCUCUGAGAGAAAUGCC,0.55
8,UACGUGGGUGGUUUUCCCCUGAUAGUGCUAAGGGGGCCUGGAAGUUUGGACUGGGCAGAGCUCAACACAGCGUGGCAAAGUGGCUGUGGCUAGACUGCCUCUCUGGAUUCCUCGUCACUCAGCAGGGCAUCUUUGAGAGAAAUGCC,0.59
9,UACGUGGGUGGUUUUCCCCUGAUAGUGCUAAGGGGGCCAGGAAGUUUGGACUGGGCAGAGCUCAACACAGCGUGGCAAAGUGGCUGUGGCUAGACUGCCUCUCUGGAUUCCUCGUCACUCAGCAGGGCAUCUCUGAGAGAAAUGCC,0.6
10,UACGUGGGUGGUUUGCCCCUGAUAGUGCUAAGGGGGCCUGGAAGUUUGGACUGGGCAGAGCUCAACACAGCGUGGCAAAGUGGCUGUGGCUAGACUGCCUCUCUGGAUUCCUCGUCACUCAGCAGGGCAUCUCUGAGAGAAAUGCC,0.97
11,UACGUGGGUGGUUUUCCCCUGACAGUGCUAAGGGGGCCUGGAAGUUUGGACUGGGCAGAGCUCAACACAGCGUGGCAAAGUGGCUGUGGCUAGACUGCCUCUCUGGAUUCCUCGUCACUCAGCAGGGCAUCUCUGAGAGAAAUGCC,0.93
12,UACGUGGGUGGUUUUCCCCUGAUAGUGCUAAGGGGGCUUGGAAGUUUGGACUGGGCAGAGCUCAACACAGCGUGGCAAAGUGGCUGUGGCUAGACUGCCUCUCUGGAUUCCUCGUCACUCAGCAGGGCAUCUCUGAGAGAAAUGCC,1.62
13,UACGUGGGUGGUUUUCCCCUGAUAGUGCUAAGGGGGCCUGGAAGCUUGGACUGGGCAGAGCUCAACACAGCGUGGCAAAGUGGCUGUGGCUAGACUGCCUCUCUGGAUUCCUCGUCACUCAGCAGGGCAUCUCUGAGAGAAAUGCC,0.5
14,UACGUGGGUGGUUUUCCCCUGAUAGUGCUAAGGGGGCCUGGAAGGUUGGACUGGGCAGAGCUCAACACAGCGUGGCAAAGUGGCUGUGGCUAGACUGCCUCUCUGGAUUCCUCGUCACUCAGCAGGGCAUCUCUGAGAGAAAUGCC,0.97
15,UACGUGGGUGGUUUUCCCCUGAUAGUGCUAAGAGGGCCUGGAAGUUUGGACUGGGCAGAGCUCAACACAGCGUGGCAAAGUGGCUGUGGCUAGACUGCCUCUCUGGAUUCCUCGUCACUCAGCAGGGCAUCUCUGAGAGAAAUGCC,0.49
16,UACGUGGGUGGUUUUCCCCUGAUAGUGCUAAGGGGGCCUGGAAGUUUGGACUGGGCAGAGCUCAACACAGCGUGGCAAAGUGGCUGUGGCUAGACUGCCUCUCUGGAUUCCUCGUCACUCAGCAGAGCAUCUCUGAGAGAAAUGCC,0.99
17,UACGUGGGUGGUUUUCCCCUGAUAGUGCUAAGGGGGCCUGGAAGUUUGGACUGGGCAGAGCUCAACACAGCGUGGCAAAGUGGCUGUGGCUAGACUGCCUCUCUGGAUUCCUUGUCACUCAGCAGGGCAUCUCUGAGAGAAAUGCC,0.84
18,UACGUGGGUGGUUUUCCCCUGAUAGUGCUAAGGGGGCCUGGAAGUUUGGACUGGGCAGAGCUCAACACAGCGUGGCAAAGUGGCUGUGGCUAGACUGCCUCUCUGGAUUCCUAGUCACUCAGCAGGGCAUCUCUGAGAGAAAUGCC,1.18
19,UACGUGGGUGGUUUUCCCCUGAUAGUGCUAAGGGGGCCUGGAAGUAUGGACUGGGCAGAGCUCAACACAGCGUGGCAAAGUGGCUGUGGCUAGACUGCCUCUCUGGAUUCCUCGUCACUCAGCAGGGCAUCUCUGAGAGAAAUGCC,0.94
20,UACGUGGGUGGUUUUCCCCUGAUAGUGCUAAGGGGGCCUGGAAGUCUGGACUGGGCAGAGCUCAACACAGCGUGGCAAAGUGGCUGUGGCUAGACUGCCUCUCUGGAUUCCUCGUCACUCAGCAGGGCAUCUCUGAGAGAAAUGCC,0.8

row,Variant,self-cleavage
1,UACGUGGGUGGUUAUCCCCUGAUAGUGCUAAGGGGGCCUGGAAGUUUGGACUGGGCAGAGCUCAACACAGCGUGGCAAAGUGGCUGUGGCUAGACUGCCUCUCUGGAUUCCUCGUCACUCAGCAGGGCAUCUCUGAGAGAAAUGCC,0.95
2,UACGUGGGUGGUUUUCCCCUGAUAGUGCUAAGGGGGCCUGGAAGUUUGGACUGGGCAGAGCUCAACACAGCGUGGCAAAGUGGCUGUGGCUAAACUGCCUCUCUGGAUUCCUCGUCACUCAGCAGGGCAUCUCUGAGAGAAAUGCC,0.14
3,UACGUGGGUGGUUUUCCCCUGAUAGUGCUAAGGGGGACUGGAAGUUUGGACUGGGCAGAGCUCAACACAGCGUGGCAAAGUGGCUGUGGCUAGACUGCCUCUCUGGAUUCCUCGUCACUCAGCAGGGCAUCUCUGAGAGAAAUGCC,0.76
4,UACGUGGGUGGUUUUCCCCUGAUAGUGCUAAGGGGGCCUGUAAGUUUGGACUGGGCAGAGCUCAACACAGCGUGGCAAAGUGGCUGUGGCUAGACUGCCUCUCUGGAUUCCUCGUCACUCAGCAGGGCAUCUCUGAGAGAAAUGCC,0.46
5,UACGUGGGUGGUUUUCCCCUGAUAGUGCUAAGGGGGCCUGGAAGUUUGGACUGGGCAGAGCUCAACACAGCGUAGCAAAGUGGCUGUGGCUAGACUGCCUCUCUGGAUUCCUCGUCACUCAGCAGGGCAUCUCUGAGAGAAAUGCC,0.4
6,UACGUGGGUGGUUUUCCCCUGAUAGUGCUAAGGGGGCCUGGAAGUUUGGACUGGGCAGAGCUCAACACAGCGUGGCAAAGUGGCUGUGGCUAGACUGCCUCUCUGAAUUCCUCGUCACUCAGCAGGGCAUCUCUGAGAGAAAUGCC,0.66
7,UACGUGGGUGGUUUUCCCCUGAUAGUGCUAAGGGGGCCUGGAAGUUUGGACUGGGCAGAGCUCAACACAGCGUGGCAAAGUGGCUGUGGCUAGACUGCCUCUCUGUAUUCCUCGUCACUCAGCAGGGCAUCUCUGAGAGAAAUGCC,1.06
8,UACGUGGGAGGUUUUCCCCUGAUAGUGCUAAGGGGGCCUGGAAGUUUGGACUGGGCAGAGCUCAACACAGCGUGGCAAAGUGGCUGUGGCUAGACUGCCUCUCUGGAUUCCUCGUCACUCAGCAGGGCAUCUCUGAGAGAAAUGCC,0.75
9,UACGUGGGUGGUUUUCCCCUGAUAGUGCCAAGGGGGCCUGGAAGUUUGGACUGGGCAGAGCUCAACACAGCGUGGCAAAGUGGCUGUGGCUAGACUGCCUCUCUGGAUUCCUCGUCACUCAGCAGGGCAUCUCUGAGAGAAAUGCC,0.74
10,UACGUGGGUGGUUUUCCCCUGAUAGUGCUAAGGGGGCCUGGAAGUUUAGACUGGGCAGAGCUCAACACAGCGUGGCAAAGUGGCUGUGGCUAGACUGCCUCUCUGGAUUCCUCGUCACUCAGCAGGGCAUCUCUGAGAGAAAUGCC,0.22
11,UACGUGGGUGGUUUUCCCCUGAUAGUGCUAAAGGGGCCUGGAAGUUUGGACUGGGCAGAGCUCAACACAGCGUGGCAAAGUGGCUGUGGCUAGACUGCCUCUCUGGAUUCCUCGUCACUCAGCAGGGCAUCUCUGAGAGAAAUGCC,0.68
12,UACGUGGGUGGUUUUCCCCUGAUAGUGCUAAGGGGGCCUGGAAGUUUGGACUGGGCAGAGCUCAACACAGCGUGGCAAAGUGGCUGUGGCUAGACUACCUCUCUGGAUUCCUCGUCACUCAGCAGGGCAUCUCUGAGAGAAAUGCC,0.18
13,UACGUGGGUGGUUUUCCCCAGAUAGUGCUAAGGGGGCCUGGAAGUUUGGACUGGGCAGAGCUCAACACAGCGUGGCAAAGUGGCUGUGGCUAGACUGCCUCUCUGGAUUCCUCGUCACUCAGCAGGGCAUCUCUGAGAGAAAUGCC,1.05
14,UACGUGGGUGGUUUUCCCCUUAUAGUGCUAAGGGGGCCUGGAAGUUUGGACUGGGCAGAGCUCAACACAGCGUGGCAAAGUGGCUGUGGCUAGACUGCCUCUCUGGAUUCCUCGUCACUCAGCAGGGCAUCUCUGAGAGAAAUGCC,0.53
15,UACGUGGGUGGUUUUCCCCUGAUAGUGCUAAGGGGGCCUGGAAGUUUGGACUGGGCAGAGCUCAACACAGCGUGGCAAAGUGGCUGUGGCUAGACUGCCUCUCUGGAUUCCUCGUCACUCAGCAGGGCAUCUCUGAGAGAAAUACC,1.21
16,UACGUGGGUGGUUUUCCCCUGAUAGUGCUAAGGGGGCCUGGAAGUUUGGACUGGGUAGAGCUCAACACAGCGUGGCAAAGUGGCUGUGGCUAGACUGCCUCUCUGGAUUCCUCGUCACUCAGCAGGGCAUCUCUGAGAGAAAUGCC,0.27
17,UACGUGGGUGGUUUUCCCCUGAUAGUGCUAAGGGGGCCUGGAAGUUUGGACUGGGCAGAGCUCAACACAGCGUGGCAAAGUGGCUGUGGCUAGACUGCCUCUCUGGAUUCCUCGUCACUCAGCAGGGCAUCUCUGAGAGAAAUGCU,1.05
18,UACGUGGGUGGUUUUCCCCUGAUAGUGCUAAGGGGGCCUGGAAGUUUGGACUGGGCAGAGCUCAACACAGCGUGGCAAAGUGGCUGUGGCUAGACUGCCUCUCUGGAUUCCUCGUCACUCAGCAGGACAUCUCUGAGAGAAAUGCC,0.46
19,UACGUGGGUGGUUUUCCCCUGAUAGUGCUAAGGGGGCCUGGAAGUUUGGACUGGGCAGAGCUCAACACAGCGUGGCAAAGUGGCUGUGGCUAGACUGCCUAUCUGGAUUCCUCGUCACUCAGCAGGGCAUCUCUGAGAGAAAUGCC,0.56
